Assay [1] deals with T1, human IL-23 (human, UniProt P29460 23-328; Q9NPF7 20-189).
T1 construct: Recombinant (Ebioscience); HIS-tagged in flow cytometry, biotinylated in some assays; also called hIL-23; rhIL-23
T1 sequence 1: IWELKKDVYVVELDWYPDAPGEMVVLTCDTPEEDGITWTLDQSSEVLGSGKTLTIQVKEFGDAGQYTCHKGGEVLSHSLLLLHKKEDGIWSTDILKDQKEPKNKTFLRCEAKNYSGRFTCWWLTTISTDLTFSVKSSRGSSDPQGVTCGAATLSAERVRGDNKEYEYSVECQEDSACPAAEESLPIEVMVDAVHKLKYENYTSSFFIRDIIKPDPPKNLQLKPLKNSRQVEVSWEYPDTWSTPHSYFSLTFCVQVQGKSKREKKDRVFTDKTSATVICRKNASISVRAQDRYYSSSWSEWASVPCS
T1 sequence 2: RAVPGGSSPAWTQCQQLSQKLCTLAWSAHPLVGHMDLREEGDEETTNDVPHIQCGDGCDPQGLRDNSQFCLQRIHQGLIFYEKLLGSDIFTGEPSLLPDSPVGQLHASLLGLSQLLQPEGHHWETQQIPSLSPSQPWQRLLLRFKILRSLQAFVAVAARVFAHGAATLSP
Nature of the assay: SPR screen, crude scFv captured via FLAG. On the procedure: Approximately 6500 individual scFvs recovered from the ribosome display reactions were expressed and screened for binding against IL-23 using a high-throughout SPR assay. The variants were ranked according to the kd and the best variants were sequenced at the nucleic acid level.
High-throughput SPR screening was conducted using a BIAcore A100 biosensor (GE Healthcare). Approximately 10 000 RU of the proprietary FLAG-specific capture molecule was immobilized on a CM5 Series S Sensor chip, using standard amine coupling chemistry on Spots 1 & 5 (outer spots) and 3,000RU to Spots 2 & 4 (inner spots) in each of the four flow cells of the BIAcore A100 Biosensor. The running buffer used was HBS-EP+ (BIAcore) and all interactions measured at 25° C. Crude periplasmic preparations of FLAG-tagged scFvs (prepared as described in the previous paragraph), were diluted two-fold in running buffer before capturing at a flow rate of 5u1/min for 60 sec. Approx. 100RU (on outer spots) and 50RU (on inner spots) of tagged scFv was captured. Following a 2 min stabilization period, IL-23 was passed over all spots of all four flow cells simultaneously at a flow rate of 30u1/min for 120 sec and dissociation monitored for 200 sec. Generated sensorgrams were referenced against the unmodified spot 3 of each flow cell, and fitted using a 1:1 Langmuir equation with R1 set to local to account for varying ligand densities to generate the kₐ, kd and KD values.

For assay [2], the target named is T1, human IL-23. Briefly: SPR, single 81 nM analyte, scFv via FLAG.
Another assay has as its target T2, human IL-12 (human, UniProt P29460 23-328; P29459 23-219).
T2 construct: Recombinant (Peprotech); FLAG-tagged IL-12 in the flow cytometry assays, biotinylated in the IL-12Rβ2 assay; also called hIL-12
T2 sequence 1: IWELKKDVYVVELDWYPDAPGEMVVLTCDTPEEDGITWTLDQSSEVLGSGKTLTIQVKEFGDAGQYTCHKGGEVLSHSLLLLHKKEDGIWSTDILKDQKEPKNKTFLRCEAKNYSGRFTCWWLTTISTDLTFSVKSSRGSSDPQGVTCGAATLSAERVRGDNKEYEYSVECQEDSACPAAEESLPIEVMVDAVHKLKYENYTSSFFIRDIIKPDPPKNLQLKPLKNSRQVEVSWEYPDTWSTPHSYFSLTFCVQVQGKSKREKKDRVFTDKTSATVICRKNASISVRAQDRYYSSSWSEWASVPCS
T2 sequence 2: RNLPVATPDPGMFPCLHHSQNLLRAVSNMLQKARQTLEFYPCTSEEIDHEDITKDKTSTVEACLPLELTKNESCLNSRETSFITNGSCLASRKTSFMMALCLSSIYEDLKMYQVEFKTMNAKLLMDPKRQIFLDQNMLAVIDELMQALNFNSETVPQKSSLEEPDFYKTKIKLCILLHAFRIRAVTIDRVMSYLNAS
Nature of the assay: ELISA, coated IL-12. The method, boiled down:
(§1)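 Each value is an absorbance measuring binding. Plates (Maxisorp) carried cytokine coated at 1 μg/mL in carbonate buffer pH 9.6 overnight at 4° C, were blocked with 1% BSA in PBS for 1 hour at 25° C, and received antibody titrations for 1 hour at 25° C. Detection used goat anti-human IgG or anti-murine immunoglobulin HRP at 1:2000 for 1 hour, then TMB stopped with 1M HCl, with absorbance taken at 450 nm (reference 620 nm).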
A general note: ELISA stands for enzyme-linked immunosorbent assay.

Assay [3] has as its target T1, human IL-23. Briefly: ELISA, coated IL-23. The method, boiled down:
as §1

B1: scFv AY-B2 (scFv)
scFv: QVQLVQSGAEVKKPGASVKVSCKASGYTFTDYYLHWVRQAPGQGLEWMGWIDPENGDTEYAPKFQGRVTVTTDTSTSTAYMELRSLRSDDTAVYYCNANKELRYFDVWGQGTMVTVSSGGGGSGGGGSGGGGSEIVMTQSPATLSVSPGERATLSCRASQSISINLHWYQQKPGQAPRLLIYFASQSISGIPARFSGSGSGTEFTLTISSLQSEDFAVYYCQQSNSFPLTFGGGTKVEIKR
notes: scFv-80 variant: VH M69V; not shown: proprietary C-terminal FLAG tag
For the molecule B1, the koff (as a rule, a measure of how fast the partners let go of each other) with human IL-23 [1] stood at 0.0001 s⁻¹.

B2: scFv AY-G7 (scFv)
scFv: QVQLVQSGAEVKKPGASVKVSCKASGYTFTDYYLHWVRQAPGQGLEWMGWIDPENGDTEYAPKFQGRVTMTTDTSTSTAYMELRSLRSDDTAVYYCNANKELRYFDVWGQGTMVTVSSGGGGSGGGGSGGGGSEIVMTQSPATLSVSPGERATLSCRASQSISINLHWYQQKPGQAPRLLIYFASQSISGIPARFSGSGSGTEFTLTISSLQSEDFAVHYCQQSNSFPLTFGGGTKVEIKR
notes: scFv-80 variant: VL Y86H; not shown: proprietary C-terminal FLAG tag
For B2, the koff with human IL-23 [1] was 0.00012 s⁻¹.

B3: scFv combo. # 13 (scFv)
scFv: QVQLVQSGAEVKKPGASVKVSCKASGYAFTDYYLHWVRQAPGRGLEWMGWIDPENGDTEYAPKFQGRVTMTTDTSTSTAYMELRSLRSDDTAVYYCNANKELRYFDVWGQGTMVTVSSGGGGSGGGGSGGGGSEIVMTQSPATLSVSPGERATLSCRASQSISINLHWYQQKPGQAPRLLIYFASQSTSGIPARFSGSGSGTEFTLTISSLQSEDFAVYYCQQSNSFPLTFGGGTKVEIKR
notes: scFv-80 with VH T28A, Q43R; VL I55T; not shown: proprietary C-terminal FLAG tag
Turning to B3, in the assay with human IL-23 [2], the Kd (as a rule, the constant that tells how readily two partners part at equilibrium) was determined as 0.051 nM; the koff was found to be 1.3e-05 s⁻¹; the kon (commonly a measure of how fast the partners come together) turned out to be 250000 M⁻¹ s⁻¹.

B4: scFv combo. # 14 (scFv)
scFv: QVQLVQSGAEVKKPGASVKVSCKASGYTLTDYYLHWVRQAPGRGLEWMGWIDPENGDTEYAPKFQGRVTMTTDTSTSTAYMELRSLRSDDTAVYYCNANKELRYFDVWGQGTMVTVSSGGGGSGGGGSGGGGSEIVMTQSPATLSVSPGERATLSCRASQSISINLHWYQQKPGQAPRLLIYFASQSTSGIPARFSGSGSGTEFTLTISSLQSEDFAVYYCQQSNSFPLTFGGGTKVEIKR
notes: scFv-80 with VH F29L, Q43R; VL I55T; not shown: proprietary C-terminal FLAG tag
In the assay with human IL-23 [2], B4 displayed a Kd of 0.079 nM, a koff of 2.1e-05 s⁻¹ and a kon of 270000 M⁻¹ s⁻¹.

B5: scFv BZ-G10 (scFv)
scFv: QVQLVQSGAEVKKPGASVKVSCKASGYTFTDYYLHWVRQAPGQGLEWMGWIDPENGDTEYAPKFQGRVTMTTDTSTSTAYMELRSLRSDDTAVYYCNANKELRYFDVWGQGTMVTVSSGGGGSGGGGSGGGGSEIVMTQSPATLSVSPGERATLSCRASRSISINLHWYQQKPGQAPRLLIYFASQSISGIPARFSGSGSGTEFTLTISSLQSEDFAVYYCQQSNSFPLTFGGGTKVEIKR
notes: scFv-80 variant: VL Q27R; not shown: proprietary C-terminal FLAG tag
In the assay with human IL-23 [1], B5 returned a koff of 0.00036 s⁻¹.

B6: scFv BY-B4 (scFv)
scFv: QVQLVQSGAEVKKPGASVKVSCKASGYAFTDYYLHWVRQAPGQGLEWMGWIDPENGDTEYAPKFQGRVTMTTDTSTSTAYMELRSLRSDDTAVYYCNANKELRYFDVWGQGTMVTVSSGGGGSGGGGSGGGGSEIVMTQSPATLSVSPGERATLSCRASQSISINLHWYQQKPGQAPRLLIYFASQSISGIPARFSGSGSGTEFTLTISSLQSEDFAVYYCQQSNSFPLTFGGGTKVEIKR
notes: scFv-80 variant: VH T28A; not shown: proprietary C-terminal FLAG tag
In the assay with human IL-23 [1], B6 had a koff of 0.00033 s⁻¹.

B7: scFv AZ-D8 (scFv)
scFv: QVQLVQSGAEVKKPGASVKVSCKASGCTFTDYYLHWVRQAPGQGLEWMGWIDPENGDTEYAPKFQGRVTMTTDTSTSTAYMELRSLRSDDTAVYYCNANKELRYFDVWGQGTMVTVSSGGGGSGGGGSGGGGSEIVMTQSPATLSVSPGERATLSCRASQSISINLHWYQQKPGQAPRLLIYFASQSISGIPARFSGSGSGTEFTLTISSLQSEDFAVYYCQQSNSFPLTFGGGTKVEIKR
notes: scFv-80 variant: VH Y27C; not shown: proprietary C-terminal FLAG tag
Consider B7, for which the koff with human IL-23 [1] stood at 4.3e-05 s⁻¹.

B8: scFv BV-B2 (scFv)
scFv: QVQLVQSGAEVKKPGASVKVSCKASGYTFTDYYLHWVRQAPGQGLEWMGWIDPENGDTEYAPKFQGRVTMTTDTSTSTAYMELRSLRSDDTAVYYCNANKELRYFDVWGQGTMVTVSSGGGGSGGGGSGGGGSEIVMTQSPATLSVSPGERATLSCRASQSISINLHWYQQKPGQAPRLLIYFASQSISGIPARFSGSGSGTEFTLTISSLQSEGFAVYYCQQSNSFPLTFGGGTKVEIKR
notes: scFv-80 variant: VL D82G; not shown: proprietary C-terminal FLAG tag
Regarding B8, the koff in the assay with human IL-23 [1] amounted to 0.00029 s⁻¹.

B9: Antibody 119 (antibody, human IgG1, kappa, V domains shown)
VH: EVQLVQSGAEVKKPGATVKISCKASGYTFSDYYLHWVRQAPEKGLEWMGWIDPENGDTEYAPKFQGRVTITADTSTDTGYMELSSLRSEDTAVYYCAANKELRYFDVWGQGTLVTVSS
VL: DIQMTQSPSSVSASVGDRVTITCRASQSISINLHWYQQKPGKAPKLLIYFASQSISGVPSRFSGSGSGTDFSLTINSLQPEDFARYYCQQSNSFPLTFGGGTKVEIKR
For B9, the binding result with human IL-12 and with human IL-23 [3] was “binds” each time.

B10: Antibody 120 (antibody, human IgG1, kappa, V domains shown)
VH: EVQLVQSGAEVKKPGATVKISCKASGYTFSDYYLHWVRQAPEKGLEWMGWIDPENGDTEYAPKFQGRVTITADTSTDTGYLQLSSLRSEDTAVYYCAANKELRYFDVWGQGTLVTVSS
VL: DIQMTQSPSSVSASVGDRVTITCRASQSISINLHWYQQKPGKAPKLLIYFASQSISGVPSRFSGSGSGTDFSLTINSLQPEDFARYYCQQSNSFPLTFGGGTKVEIKR
B10: the binding result with human IL-12 and with human IL-23 [3] was “binds” each time.

B11: Antibody 123 (antibody, human IgG1, kappa, V domains shown)
VH: EVQLVQSGAEVKKPGATVKISCKASGYTFSDYYLHWVRQAPEKGLEWMGWIDPENGDTEYAPKFQGRVTITADTSTDTGYLELSSLRSDDTAVYYCAANKELRYFDVWGQGTLVTVSS
VL: DIQMTQSPSSVSASVGDRVTITCRASQSISINLHWYQQKPGKAPKLLIYFASQSISGVPSRFSGSGSGTDFSLTINSLQPEDFARYYCQQSNSFPLTFGGGTKVEIKR
As for B11, the binding result with human IL-12 and with human IL-23 [3] was “binds” each time.

B12: Antibody 124 (antibody, human IgG1, kappa)
heavy chain: not shown
light chain: DIQMTQSPSSVSASVGDRVTITCRASQSISINLHWYQQKPGKAPKLLIYFASQSISGVPSRFSGSGSGTDFSLTINSLQPEDFARYYCQQSNSFPLTFGGGTKVEIKRTVAAPSVFIFPPSDEQLKSGTASVVCLLNNFYPREAKVQWKVDNALQSGNSQESVTEQDSKDSTYSLSSTLTLSKADYEKHKVYACEVTHQGLSSPVTKSFNRGEC
Take B12: the binding result in the assay with human IL-12 and with human IL-23 [3] was “binds” each time.

B13: Antibody 121 (antibody, human IgG1, kappa, V domains shown)
VH: EVQLVQSGAEVKKPGATVKISCKASGYTFSDYYLHWVRQAPEKGLEWMGWIDPENGDTEYAPKFQGRVTITADTSTDTGYLELRSLRSEDTAVYYCAANKELRYFDVWGQGTLVTVSS
VL: DIQMTQSPSSVSASVGDRVTITCRASQSISINLHWYQQKPGKAPKLLIYFASQSISGVPSRFSGSGSGTDFSLTINSLQPEDFARYYCQQSNSFPLTFGGGTKVEIKR
Consider B13, for which the binding result in the assay with human IL-12 and in the assay with human IL-23 [3] was “binds” in each case.

B14: Antibody 122 (antibody, human IgG1, kappa, V domains shown)
VH: EVQLVQSGAEVKKPGATVKISCKASGYTFSDYYLHWVRQAPEKGLEWMGWIDPENGDTEYAPKFQGRVTITADTSTDTGYLELSSLTSEDTAVYYCAANKELRYFDVWGQGTLVTVSS
VL: DIQMTQSPSSVSASVGDRVTITCRASQSISINLHWYQQKPGKAPKLLIYFASQSISGVPSRFSGSGSGTDFSLTINSLQPEDFARYYCQQSNSFPLTFGGGTKVEIKR
As to B14, the binding result with human IL-12 and in the assay with human IL-23 [3] was “binds” each time.

These data come from US20110262445A1 (CEPHALON AUSTRALIA, published 2011).
